From US20070207955A1, “Novel polypeptide and process for producing the same, and collagenase inhibitor” (priority 2006, published 2007) come the findings set out here.

Assay [1] concerns the target T1, collagenase (MMP-1, human rheumatoid synovial fibroblast) (Homo sapiens, UniProt P03956).
T1 construct: collagenase (MMP-1, human rheumatoid synovial fibroblast); endogenous in cells; host or cells: human rheumatoid synovial fibroblast
T1 sequence (P03956 100-469): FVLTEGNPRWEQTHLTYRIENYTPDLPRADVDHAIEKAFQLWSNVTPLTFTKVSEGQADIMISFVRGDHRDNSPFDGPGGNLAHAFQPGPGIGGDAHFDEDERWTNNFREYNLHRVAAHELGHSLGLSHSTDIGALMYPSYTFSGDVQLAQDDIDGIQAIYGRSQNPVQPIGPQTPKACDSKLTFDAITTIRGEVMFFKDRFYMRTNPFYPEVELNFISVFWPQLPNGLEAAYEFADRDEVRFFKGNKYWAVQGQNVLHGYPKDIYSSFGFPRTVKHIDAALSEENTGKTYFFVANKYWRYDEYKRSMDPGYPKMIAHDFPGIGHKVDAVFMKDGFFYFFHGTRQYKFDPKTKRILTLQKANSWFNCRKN
The experiment in a line: Test Example 2: collagenase inhibition, peak area of Dnp-Pro-Leu-Gly from decomposition of Dnp-Pro-Leu-Gly-Ile-Ala-Gly-Arg-NH2. It counts as biochemical. The note with it: 0.025 mg polypeptide, 200 ng collagenase, 37° C. for one hour. As to the method:
Each of the polypeptides (0.025 mg) obtained in the Examples 1 to 6 and Comparative Examples 1 and 2 was dissolved in 0.05 mL of a 50 mM Tris/HCl buffer (pH=7.5) containing 50 mM NaCl and 10 mM CaCl2. Further, to each of the solutions was added 200 ng of collagenase (MMP-1, human rheumatoid synovial fibroblast) which was dissolved in 0.05 mL of a 50 mM Tris/HCl buffer (pH=7.5) containing 50 mM NaCl and 10 mM CaCl2, and was added 0.01 mL of 1 mM DMSO solution of Dnp-Pro-Leu-Gly-Ile-Ala-Gly-Arg-NH2 (manufactured by Peptide Institute, Inc., Dnp represents 2,4-dinitrophenyl group). The resulting mixture was allowed to stand at 37° C. for one hour. Then, 0.2 mL of acetonitrile was added to the mixture, and the resultant was centrifuged at 10,000 rpm for 10 minutes.
Incidentally, as a control, a peak area of the peptide Dnp-Pro-Leu-Gly without addition of any polypeptide was measured. The peak area of the control was considered as 100, and the peak area detected by addition of each of the polypeptides obtained in Examples and Comparative Examples was calculated as a relative value to the control.

Assay [2] has as its target collagenase (MMP-1, human rheumatoid synovial fibroblast) (human) (UniProt P03956).
For assay [3], the target named is polypeptide of Example 3 (co-polycondensate of H-(Pro-Hyp-Gly)10-OH and H-(Pro-Hyp-Gly)4-Pro-Gln-Gly-Ile-Ala-Gly-(Pro-Hyp-Gly)4-OH, equimolar) (Artificial Sequence).
Assay [4] has as its target polypeptide of Example 2 (polycondensate of H-(Pro-Hyp-Gly)4-Pro-Gln-Gly-Ile-Ala-Gly-(Pro-Hyp-Gly)4-OH) (Artificial Sequence).
For assay [5], the target named is polypeptide of Comparative Example 1 (polycondensate of H-(Pro-Hyp-Gly)10-OH) (Artificial Sequence).

Regarding “H-(Pro-Hyp-Gly)10-OH [Comparative Example 2]”, the “inhibition of the collagenase activity” value in assay [1] is on record as “the inhibition of the collagenase activity was not recognized”. For the same substance, the “relative value of the detected peak area of Dnp-Pro-Leu-Gly (control without polypeptide = 100)” value in assay [1] (pH 7.5) stood at 96.
Consider “polypeptide of Example 6 (polycondensate of H-(Pro-Hyp-Gly)4-Pro-Leu-Gly-Ile-Ala-Gly-(Pro-Hyp-Gly)4-OH)”, for which, in assay [2], the relative value of the peak area of Dnp-Pro-Leu-Gly (control without polypeptide = 100) (relative to control = 100) came out at 2.
Regarding “polypeptide of Example 4 (co-polycondensate of H-(Pro-Hyp-Gly)10-OH and H-(Pro-Hyp-Gly)4-Pro-Gln-Gly-Ile-Ala-Gly-(Pro-Hyp-Gly)4-OH, 0.00081 mmol to 0.00009 mmol)”, the relative value of the peak area of Dnp-Pro-Leu-Gly (control without polypeptide = 100) (relative to control = 100) in assay [2] turned out to be 22.
Regarding “polypeptide of Example 1, H-(Pro-Hyp-Gly)4-Pro-Gln-Gly-Ile-Ala-Gly-(Pro-Hyp-Gly)4-OH”, the relative value of the peak area of Dnp-Pro-Leu-Gly (control without polypeptide = 100) (relative to control = 100) in assay [2] is 5.
In the case of “polypeptide of Example 2 (polycondensate of H-(Pro-Hyp-Gly)4-Pro-Gln-Gly-Ile-Ala-Gly-(Pro-Hyp-Gly)4-OH)”, the relative value of the peak area of Dnp-Pro-Leu-Gly (control without polypeptide = 100) (relative to control = 100) in assay [2] came to 3.
The same measure, in the same setting: the result for “polypeptide of Example 3 (co-polycondensate of H-(Pro-Hyp-Gly)10-OH and H-(Pro-Hyp-Gly)4-Pro-Gln-Gly-Ile-Ala-Gly-(Pro-Hyp-Gly)4-OH, equimolar)” reads 12; that for “peptide of Comparative Example 2, H-(Pro-Hyp-Gly)10-OH”, 96; that for “polypeptide of Example 5, H-(Pro-Hyp-Gly)4-Pro-Leu-Gly-Ile-Ala-Gly-(Pro-Hyp-Gly)4-OH”, 4.
Same read-out and setting: the result for “polypeptide of Comparative Example 1 (polycondensate of H-(Pro-Hyp-Gly)10-OH)” reads 97.
As to “collagenase (MMP-1, human rheumatoid synovial fibroblast) (from UniProt P03956) (enzyme)”, the change in the molecular weight peak by gel-permeation chromatography after 24 hours at 37 C with collagenase (molecular weight) in assay [3] was found to be 400000; in assay [4] it was 540000; in assay [5], 540000.
